This passage reports number in the upper right quadrant (MHC-Multimer PE and APC double positive), no percent sign printed results from patent US20180088121A1.

Where no end group is shown, it is not given here.

The assay deals with TCRs of APC frameshift neopeptide specific T cell populations. As to the kind of experiment: flow cytometry, double staining with PE and APC labelled neopeptide-MHC multimers of T cells after 2 weeks of in vitro expansion; first panel from the left. (Flow cytometry measures light scatter and fluorescence of single cells or particles in a stream.)

As to LILYYILPRKV (peptide-MHC, part only; not given: HLA-A2 heavy chain, construct, human, part only, also: bound in HLA-A2 MHC multimer, PE and APC labelled) [A2/…], the number in the upper right quadrant (MHC-Multimer PE and APC double positive), no percent sign printed amounted to 0.31.
